Reference: the nanobody polyreactivity screen of Harvey et al. (2022)

Test: yeast display, Sf9 membrane polyspecificity reagent, FACS + sequencing; frameworks hold sequencing errors
Outline: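 Sorting gates, low and high (top ~1%), were placed on anti-HA fluorescence to track expression and on streptavidin fluorescence to track reagent binding. A clone's polyreactivity label is taken from the gate it came out of. The reagent was 10% biotinylated, detergent-solubilized Sf9 membrane, applied for 1 hour at 4 °C to galactose-induced yeast display cells.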

| Sequence | polyreactivity (PSR sort gate) |
| --- | --- |
| QVQLVESGGGLVQAGGSLRLSCAASGRTFRYNAMGWYRQAPGKERELVAAITQSGGSTYYADSVWGRFTISRDNAKNTVYLQMNSLKPDDTAVYYCAKVRERINYDYWGQGTQVTVSS | low polyreactivity |
| QVQLVESGGGLVQAGGSLRLSCAASGRTFRYNAMGWYRQAPGKERELVAAITWGGGSTYYADSVKGRFTISRDNAKYTVYLQMNSLKPEDTAVYYCNADYIGNYQSIYQYDYWGQGTQVTVSS | low polyreactivity |
| QVQLVESGGGLVQAGGSLRLSCAASGRTFRYNAMGWYRQAPGKERELVASISWRGGSTYYADSVKGRFTISRDNAKNTVYLPMNSLKPEDTAVYYCAADAAHSEYDDWGQGTQVTVSS | high polyreactivity |
| QVQLVESGGGLVQAGGSLRLSCAASGRTFRYNTMGWYRQAPGKERELVAALTYRGGRTYYADSVKGRFTISRDHAKNTVYLQMNSLKPEDTAVYYCARDYYGSVRFDHWGQGTQVTVSS | high polyreactivity |
| QVQLVESGGGLVQAGGSLRLSCAASGRTFRYNTMGWYRQAPGKERELVARITRSGGSTYYADSVKGRFTISRDNAKNTVYLQMNSLKPEDTAVYYCAAVPILVYRWFQSYTGDYDYWGQGTQVTVSS | low polyreactivity |
| QVQLVESGGGLVQAGGSLRLSCAASGRTFRYYAIGWYRQAPGKERELVAAISSSGASTYDAESVKGRFTISRDNAKYTVYLQMNSLKPEDTAVYYCRSGILFYSRYDYWGQGTQVTVSS | low polyreactivity |
| QVQLVESGGGLVQAGGSLRLSCAASGRTFRYYAMGWNRQAPGKESELVASISRSGGSTYYADSVKGRFTISRDNAKITVYLQMNSLKPEDTAVYYCAVGKGSHYLGFDYWGQGTQVTVSS | high polyreactivity |
| QVQLVESGGGLVQAGGSLRLSCAASGRTFRYYAMGWYRQAPGKERELVAAIDTSSGSTYYADSVKGRFTISRDNAKNTVYLQMKSLKPEDTAVYYCNATWWIPLFYDYWGQGTQVTVSS | low polyreactivity |
| QVQLVESGGGLVQAGGSLRLSCAASGRTFRYYAMGWYRQAPGKERELVAAITSGGSTYYADSVKGRFTISRDNAKNTVYLLMNSLKPEDTAAYYCAAEYVYPYWNGFDYWGQGTQVTVSS | low polyreactivity |
| QVQLVESGGGLVQAGGSLRLSCAASGRTFRYYAMGWYRQAPGKERELVAAITSGGSTYYADSVKGRFTISRDNAKNTVYLQMNSLKPEDTAVYYCNKDFTRTWTRHGDDYWGQGTQVTVSS | high polyreactivity |
| QVQLVESGGGLVQAGGSLRLSCAASGRTFRYYAMGWYRQAPGKERELVAAITVRTGSTSYADSVKGRFTISRDNAKNTVYLQMNSLKPEDTAVYYCAATSRYFQPPGYGGGRIGYGYWGQGTQVTVSS | high polyreactivity |
| QVQLVESGGGLVQAGGSLRLSCAASGRTFRYYAMGWYRQAPGKERELVASISRRGGSTHYADSVKVRFTISRDNAKNTVYLQMNSLKPEDTAVYYCAAYGYYTKVTKYDYWGQGTQVTVSS | high polyreactivity |
| QVQLVESGGGLVQAGGSLRLSCAASGRTFRYYTMGWYRQAPGKERELVAAISWSSGSTYYADSVKGRFTISRDNAKNTVYLQMNSLKPEDTAVYYCAASRVRREYVGQDVGFVGYDSWGQGTQVTVSS | high polyreactivity |
| QVQLVESGGGLVQAGGSLRLSCAASGRTFRYYTMGWYRQAPGTERELVAAITGGSRTNYADSVKGRFTISRDNAKNTVYLQMNSLKPEDTAVYYCAARRSYLLRYDYWGQGTQVTVSS | high polyreactivity |
| QVQLVESGGGLVQAGGSLRLSCAASGRTFSANAMGWYRLAPGKERELVATISSGGRTNYADSVKGRFTISRDNAKNTVYLQMNSLKPEDTAVYYCAKRGPYNRWYGRYDYWGQGTQVTVSS | low polyreactivity |
| QVQLVESGGGLVQAGGSLRLSCAASGRTFSANTMGWYRQAPGKERELVAAISKSGGSTYYADSVKGRFTISRDNAKNTVYLQMNSLKPEDTAVYYCAAARNVYRGRVYWGRYDYWGQGTQVTVSS | high polyreactivity |

| Sequence | polyreactivity (PSR sort gate) |
| --- | --- |
| QVQLVESGGGLVQAGGSLRLSCAASGRTFSAYAMGWYRQAPGKERELVATISRSGGRTYYADSVKGRFTISRDNAKNTVYLQMNSLKPEDTAVYYCNARILRDNQGTYDYWGQGTQVTVSS | high polyreactivity |
| QVQLVESGGGLVQAGGSLRLSCAASGRTFSDYAMGWYRQAPGKERELVAAITSSGGSTYYADSVKGRFTISRDNAKNTVYLQMNSLKPEDTAVYYCAKVWYGDRNIDRYDYWGQGTQVTVSS | high polyreactivity |
| QVQLVESGGGLVQAGGSLRLSCAASGRTFSGNAMGWYIQAPRKDRELVAAISSGGSTNYADSVKGRFTISRDNAKNTVYLQMNSLEPEDTAVYYCAADEWRFPSYAYYYWGQGTQVTVSS | low polyreactivity |
| QVQLVESGGGLVQAGGSLRLSCAASGRTFSGNAMGWYRQAPGKEREMVAAITGRGGTTYYADSVKGRFTISRDNAKKTVFLQMNSLKPEDTAVYYCAADTKLSYQWFDYWGQGTQVTVSS | high polyreactivity |
| QVQLVESGGGLVQAGGSLRLSCAASGRTFSGYAMGWYRQAPGKEREFVAAISRSGGSTYYADSVKGRFTISRDNAKNTVYLQMNSLKPEDIAVYYCAAQIWYSKRLAYKAYDYWGQGTQVTVSS | high polyreactivity |
| QVQLVESGGGLVQAGGSLRLSCAASGRTFSGYAMGWYRQAPGKERELVAAITSSGSSTYYADSVKGRFTISRDNAKNTVYLQMNSQKPEDTSVYYCAATPQAHSERYYYQRKYDYWGQGTQVTVSS | low polyreactivity |
| QVQLVESGGGLVQAGGSLRLSCAASGRTFSHYAMGWYRQAPGKERELVAAITWSGGRTYYADSVKGRFTISRDNAKNTVYLQMNSLKPEDTAVYYCAAGKYWPGNYWGQGTQVTVSS | high polyreactivity |
| QVQLVESGGGLVQAGGSLRLSCAASGRTFSIYAKGWYRQAPGKERELVAAISNGGRTKYADSVKGRFTISRDNAKNTVYLQMNSLKPEDTAVYYCAASSYTHKRYPSPYDYWGQGTQVTVSS | high polyreactivity |
| QVQLVESGGGLVQAGGSLRLSCAASGRTFSKNAMGWYRQAPGKERELVAAISWSGGRTYYADSVKGRFTISRDNAKNTVYLQMNSLKPEDTAVYYCNAYYPGNGPRSTSTRYEYWGQGTQVTVSS | high polyreactivity |
| QVQLVESGGGLVQAGGSLRLSCAASGRTFSKYAMGWYRQAPGKERELVAAISKRGGSTSYADSVKGRFTISRDNAKNTVYLQMNSLKPEDTAVYYCAADGNRNYLYWPYGYWGQGTQVTVSS | high polyreactivity |
| QVQLVESGGGLVQAGGSLRLSCAASGRTFSKYTMGWYRQATGKERELVAAIDRSGGSTYYADSVKGRFTISRDNAKNTVYLQMNSLKPEDTAVYYCAAVYYLVPGNYWGHGTQVTVSS | high polyreactivity |
| QVQLVESGGGLVQAGGSLRLSCAASGRTFSNYAMGWYRQAPGKEREFVAGIRYNGGSTYYADSVKGRFTISRDNAKNTVYLQMNSLKPEDTAVYYCAAERWFYRSKFDYWGQGTQVTVSS | high polyreactivity |
| QVQLVESGGGLVQAGGSLRLSCAASGRTFSNYMGWYRQAPGKERELVAAISWRGGTTYYADSVKGRFTISRDNAKNTVYLQMNSLKPEDTAVYYCNADVVRYRHWHRGDYWGQGTQVTVSS | low polyreactivity |
| QVQLVESGGGLVQAGGSLRLSCAASGRTFSPNAMGWYRQAPGKERELVAAITRSDGRTYYADSVKGRFTISRDNAKNTVYLQMNSLKPEDTAVYYCAVDGYYPPAWYEYDYWGQGTQVTVSS | high polyreactivity |
| QVQLVESGGGLVQAGGSLRLSCAASGRTFSPYAMGWYRQAPGKERELVAAITSRGASTYYADSVKGRFTISRDNAKNTVYLQMNSLKPEDTAVYYCNSGRTYRRLGDYWGQGTQVTVSS | high polyreactivity |
